Consider 17 molecules from patent US20220088146A1 (PALATIN TECHNOLOGIES, published 2022).

Assay [1] concerns the target T1, human melanocortin-1 receptor (human, UniProt Q01726 1-317). The experiment in a line: cell-based or functional assay.
Assay [2] concerns the target T2, human melanocortin-4 receptor (human, UniProt P32245 1-332).
T2 construct: whole, on cells; Ki assay used membrane homogenates of HEK-293 cells expressing recombinant hMC4r; also called MC4r; hMC4r
The experiment in a line: [I125]-NDP-α-MSH competition, hMC4r HEK-293 membranes.

In assay [3] the target is T1, human melanocortin-1 receptor. The experiment in a line: [I125]-NDP-α-MSH competition, hMC1r HEK-293 membranes.
Assay [4] has as its target melanocortin-2 receptor (UniProt Q01718 1-297). Nature of the assay: cell-based or functional assay.
In assay [5] the target is melanocortin-3 receptor (UniProt P41968 1-323). The experiment in a line: cell-based or functional assay.
Sequence of melanocortin-3 receptor (P41968 whole entry): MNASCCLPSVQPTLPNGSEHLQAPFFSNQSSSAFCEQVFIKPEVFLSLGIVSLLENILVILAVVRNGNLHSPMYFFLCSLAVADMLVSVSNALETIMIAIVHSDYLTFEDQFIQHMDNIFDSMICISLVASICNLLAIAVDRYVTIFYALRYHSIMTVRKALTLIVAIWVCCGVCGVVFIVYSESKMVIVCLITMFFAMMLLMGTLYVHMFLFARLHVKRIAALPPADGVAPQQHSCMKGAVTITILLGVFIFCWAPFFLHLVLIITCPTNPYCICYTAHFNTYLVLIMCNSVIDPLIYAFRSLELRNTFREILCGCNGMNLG
Assay [6] has as its target melanocortin-5 receptor (UniProt P33032 1-325). Nature of the assay: cell-based or functional assay.

Numbered stars: 1 amine (or outer) side, 2 acyl side, 3 side chain; on linkers, the order of the positions; unused ones are H or OH. Bridge positions count the residues as written; N and C are the ends. Square brackets hold non-standard residues; d marks the D form. * marks the point of attachment. Cyclohexanecarbonyl = O=C(C1CCCCC1)*; Cyclohexylacetyl = O=C(CC1CCCCC1)*; Cyclopentylacetyl = O=C(CC1CCCC1)*; Cyclopropanecarbonyl = O=C(C1CC1)*; Hydrocinnamoyl = O=C(CCc1ccccc1)*; Suc = O=C(CCC(=O)[*:2])[*:1]; Heptanoyl = CCCCCCC(=O)*; Nle = CCCC[C@H](N)C(=O)O; Dab = NCC[C@H](N)C(=O)O; Dap = NC[C@H](N)C(=O)O; Hexanoyl = CCCCCC(=O)*; Pentanoyl = CCCCC(=O)*; PhAc = O=C(Cc1ccccc1)*; Butyryl = CCCC(=O)*

In general, Ki refers to the dissociation constant of the complex between target and ligand, obtained from inhibition or displacement.

T2 sequence (P32245 whole entry): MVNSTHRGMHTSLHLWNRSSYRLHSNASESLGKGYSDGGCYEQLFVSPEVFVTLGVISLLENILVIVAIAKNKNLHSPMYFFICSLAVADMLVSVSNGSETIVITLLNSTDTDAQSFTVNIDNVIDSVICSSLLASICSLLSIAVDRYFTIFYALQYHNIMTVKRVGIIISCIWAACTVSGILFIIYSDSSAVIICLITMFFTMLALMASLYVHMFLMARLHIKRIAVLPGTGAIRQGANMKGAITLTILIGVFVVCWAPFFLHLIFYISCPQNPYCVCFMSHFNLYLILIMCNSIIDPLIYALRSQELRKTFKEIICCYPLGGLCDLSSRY
T1 sequence (Q01726 whole entry): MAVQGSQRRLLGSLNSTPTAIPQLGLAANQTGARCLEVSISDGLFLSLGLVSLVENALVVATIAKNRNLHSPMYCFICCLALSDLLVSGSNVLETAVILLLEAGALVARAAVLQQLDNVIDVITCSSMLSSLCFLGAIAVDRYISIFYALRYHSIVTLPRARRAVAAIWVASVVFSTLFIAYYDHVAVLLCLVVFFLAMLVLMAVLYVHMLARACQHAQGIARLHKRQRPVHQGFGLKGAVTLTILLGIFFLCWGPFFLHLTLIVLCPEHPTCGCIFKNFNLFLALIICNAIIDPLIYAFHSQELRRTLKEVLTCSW
Sequence of melanocortin-2 receptor (Q01718 whole entry): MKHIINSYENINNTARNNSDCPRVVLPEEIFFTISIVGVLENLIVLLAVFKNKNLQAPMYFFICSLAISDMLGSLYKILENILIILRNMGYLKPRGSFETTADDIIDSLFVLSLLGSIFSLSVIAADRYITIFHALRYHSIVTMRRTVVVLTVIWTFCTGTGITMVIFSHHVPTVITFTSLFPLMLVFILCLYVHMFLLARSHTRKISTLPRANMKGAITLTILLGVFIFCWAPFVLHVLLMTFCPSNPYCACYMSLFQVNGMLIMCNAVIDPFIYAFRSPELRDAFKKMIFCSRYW
Sequence of melanocortin-5 receptor (P33032 whole entry): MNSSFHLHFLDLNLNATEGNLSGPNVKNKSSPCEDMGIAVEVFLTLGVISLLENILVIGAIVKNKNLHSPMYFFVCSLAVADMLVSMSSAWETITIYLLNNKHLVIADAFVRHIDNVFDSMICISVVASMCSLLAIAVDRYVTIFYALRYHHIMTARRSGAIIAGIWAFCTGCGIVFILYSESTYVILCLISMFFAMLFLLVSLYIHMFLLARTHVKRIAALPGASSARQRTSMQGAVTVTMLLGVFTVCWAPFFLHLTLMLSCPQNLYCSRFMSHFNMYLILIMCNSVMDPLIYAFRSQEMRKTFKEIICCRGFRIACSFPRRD

In the case of Cyclohexylacetyl-EH[dF]R[Dab]W-NH2 (lactam 1-5, also called 9.22) [cyclohexyl acetyl-cyclo(Glu-His-D-Phe-Arg-Dab)-Trp-NH2], the “MC-1 Emax (average; cAMP HBL)” value in assay [1] came out at 85%. For the same molecule, the Ki in assay [2] is 63 nM.
On to Ac-[Nle]EH[dF]RKW-NH2 (lactam 2-6, also called 9.1) [Ac-Nle-cyclo(Glu-His-D-Phe-Arg-Lys)-Trp-NH2], for which, in assay [1], the “MC-1 Emax (average; cAMP HBL)” value was 97%. In assay [2], this molecule yielded a Ki of 45 nM.
On the same counts, the results for Hydrocinnamoyl-EH[dF]R[Dab]W-NH2 (lactam 1-5, also called 9.24) [phenyl propanoyl-cyclo(Glu-His-D-Phe-Arg-Dab)-Trp-NH2] are 83% and 285 nM.

B1: cyclo-propanoyl-cyclo(Glu-His-D-Phe-Arg-Dab)-Trp-NH2 (peptide)
peptide: Cyclopropanecarbonyl-EH[dF]R[Dab]W-NH2
modifications: lactam 1-5
SMILES: N=C(N)NCCC[C@@H]1NC(=O)[C@@H](Cc2ccccc2)NC(=O)[C@H](Cc2c[nH]cn2)NC(=O)[C@@H](NC(=O)C2CC2)CCC(=O)NCC[C@@H](C(=O)N[C@@H](Cc2c[nH]c3ccccc23)C(N)=O)NC1=O
notes: also called 9.19
Consider B1, for which, in assay [1], the “MC-1 Emax (average; cAMP HBL)” value is 83%. For the same molecule, the Ki worked out at 3 nM in assay [3] and 640 nM in assay [2].
Consider Ac-[Nle]CH[dF]RCW-NH2 (disulfide 2-6, also called 9.5) [Ac-Nle-cyclo(Cys-His-D-Phe-Arg-Cys)-Trp-NH2], for which the “MC-1 Emax (average; cAMP HBL)” value in assay [1] amounted to 87%. In addition, the affinity in assay [2] corresponds to a Ki of 540 nM.
On the same counts, the results for Heptanoyl-EH[dF]R[Dab]W-NH2 (lactam 1-5, also called 9.18) [CH3-(CH2)5-C(═O)-cyclo(Glu-His-D-Phe-Arg-Dab)-Trp-NH2] are 87% and 100 nM.
As to Butyryl-EH[dF]R[Dab]W-NH2 (lactam 1-5, also called 9.15) [CH3-(CH2)2-C(═O)-cyclo(Glu-His-D-Phe-Arg-Dab)-Trp-NH2], the “MC-1 Emax (average; cAMP HBL)” value in assay [1] was determined as 91%. For the same molecule, affinity in assay [2] was put at a Ki of 890 nM.
Turning to Cyclohexanecarbonyl-EH[dF]R[Dab]W-NH2 (lactam 1-5, also called 9.20) [cyclo-hexanoyl-cyclo(Glu-His-D-Phe-Arg-Dab)-Trp-NH2], the “MC-1 Emax (average; cAMP HBL)” value in assay [1] stood at 79%. In assay [2], this molecule showed a Ki of 165 nM.
On the same counts, the results for Pentanoyl-EH[dF]R[Dab]W-NH2 (lactam 1-5, also called 9.16) [CH3-(CH2)3-C(═O)-cyclo(Glu-His-D-Phe-Arg-Dab)-Trp-NH2] are 89% and 365 nM.
Turning to Ac-SYSMEHFRWGKPV-NH2 (ligand) [α-MSH (Ac-Ser-Tyr-Ser-Met-Glu-His-Phe-Arg-Trp-Gly-Lys-Pro-Val-NH2)], the “Functional - CEREP (EC50; nM)” value in assay [4] was greater than 10000 nM.
Cyclopentylacetyl-EH[dF]R[Dab]W-NH2 (lactam 1-5, also called 9.21) [cyclopentyl acetyl-cyclo(Glu-His-D-Phe-Arg-Dab)-Trp-NH2]: the “MC-1 Emax (average; cAMP HBL)” value in assay [1] was 83%. The molecule further registered a Ki in assay [2] of 93 nM.
The matching figures for Hexanoyl-EH[dF]R[Dab]W-NH2 (lactam 1-5, also called 9.17) [CH3-(CH2)4-C(═O)-cyclo(Glu-His-D-Phe-Arg-Dab)-Trp-NH2]: 90% and 110 nM.
The matching figures for Ac-[Nle]EHFR[Dab]W-NH2 (lactam 2-6, also called 9.8) [Ac-Nle-cyclo(Glu-His-Phe-Arg-Dab)-Trp-NH2]: 88% and 10000 nM.
As to Ac-[Nle]EH[dF]R[Dap]W-NH2 (lactam 2-6) [Ac-Nle-cyclo(Glu-His-D-Phe-Arg-Dap)-Trp-NH2], the “Functional - CEREP (EC50; nM)” value in assay [4], in assay [5] and in assay [6] was greater than 10000 nM each time.
With PhAc-EH[dF]R[Dab]W-NH2 (lactam 1-5, also called 9.23) [phenyl acetyl-cyclo(Glu-His-D-Phe-Arg-Dab)-Trp-NH2], the “MC-1 Emax (average; cAMP HBL)” value in assay [1] was determined as 82%. This molecule also registered a Ki in assay [2] of 205 nM.
On the same counts, the results for Ac-FEH[dF]R[Dab]W-NH2 (lactam 2-6, also called 9.13) [Ac-Phe-cyclo(Glu-His-D-Phe-Arg-Dab)-Trp-NH2] are 75% and 510 nM.

B2: cyclo(Suc-His-Phe-Arg-Dab)-Trp-NH2 (peptide)
peptide: [Suc]HFR[Dab]W-NH2
modifications: lactam N-5
SMILES: N=C(N)NCCC[C@@H]1NC(=O)[C@H](Cc2ccccc2)NC(=O)[C@H](Cc2c[nH]cn2)NC(=O)CCC(=O)NCC[C@@H](C(=O)N[C@@H](Cc2c[nH]c3ccccc23)C(N)=O)NC1=O
notes: also called 9.14
With B2, in assay [1], the “MC-1 EC50 (average; cAMP HBL)” value came out at 31 nM and the “MC-1 Emax (average; cAMP HBL)” value worked out at 80%. The same molecule had a Ki in assay [3] of 310 nM. Further, the Ki in assay [2] amounted to 10000 nM.
